The values that follow come from paper PMC3646729, “Recruitment, Assembly, and Molecular Architecture of the SpoIIIE DNA Pump Revealed by Superresolution Microscopy” (PLoS Biology, 2013).

This data set deals with the molecule itself. In words: two-photon number and brightness analysis (N&B, fluorescence fluctuation microscopy); live B. subtilis cells with SpoIIIE-GFP; clusters at sporulation and division septa, after induction of sporulation or in exponential growth; brightness normalised to monomeric freely diffusing GFP; excitation at 930 nm, 50 raster scans.

The term stoichiometry N denotes a count of units in the complex or per binding partner.

B1: SpoIIIE-GFP fusion (natural protein, B. subtilis, UniProt P21458 1-787, looked up)
chain: MAKKKRKSRKKQAKQLNIKYELNGLLCIAISIIAILQLGVVGQTFIYLFRFFAGEWFILCLLGLLVLGVSLFWKKKTPSLLTRRKAGLYCIIASILLLSHVQLFKNLTHKGSIESASVVRNTWELFLMDMNGSSASPDLGGGMIGALLFAASHFLFASTGSQIMAIVMILIGMILVTGRSLQETLKKWMSPIGRFIKEQWLAFIDDMKSFKSNMQSSKKTKAPSKKQKPARKKQQMEPEPPDEEGDYETVSPLIHSEPIISSFSDRNEEEESPVIEKRAEPVSKPLQDIQPETGDQETVSAPPMTFTELENKDYEMPSLDLLADPKHTGQQADKKNIYENARKLERTFQSFGVKAKVTQVHLGPAVTKYEVYPDVGVKVSKIVNLSDDLALALAAKDIRIEAPIPGKSAIGIEVPNAEVAMVSLKEVLESKLNDRPDAKLLIGLGRNISGEAVLAELNKMPHLLVAGATGSGKSVCVNGIITSILMRAKPHEVKMMMIDPKMVELNVYNGIPHLLAPVVTDPKKASQALKKVVNEMERRYELFSHTGTRNIEGYNDYIKRANNEEGAKQPELPYIVVIVDELADLMMVASSDVEDSITRLSQMARAAGIHLIIATQRPSVDVITGVIKANIPSRIAFSVSSQTDSRTILDMGGAEKLLGRGDMLFLPVGANKPVRVQGAFLSDDEVEKVVDHVITQQKAQYQEEMIPEETTETHSEVTDELYDEAVELIVGMQTASVSMLQRRFRIGYTRAARLIDAMEERGVVGPYEGSKPREVLLSKEKYDELSS
notes: SpoIIIE DNA translocase of Bacillus subtilis (strain PY79 derivative); the SpoIIIE gene was replaced by a SpoIIIE-GFP fusion, no wild-type copy left; The fusion is said to be fully functional, so it is probably the whole protein; also called SpoIIIE ATPase; SpoIIIE DNA translocase; source: B. subtilis PY79 derivative, SpoIIIE-GFP fusion under the endogenous promoter, in live cells
As for B1, the “stoichiometry N” value is 6.
